Data taken from patent publication US20190071480A1 (Biogen, published 2019).
Substitutions are numbered along the chain they refer to.

Columns and labels:
[1] = biological target: T1, extracellular domain of activin receptor type IIB (ActRIIBecd), biotinylated (Homo sapiens (Human), UniProt Q13705 27-117, amino-biotinylated with amine-PEG3-Biotin); test: BIAcore SPR, biotinylated ActRIIBecd on chip; SD ±12.89 nM
T1 construct: immobilised on a streptavidin-coated sensor chip; also called biotinylated ActRIIBecd; extracellular domain of ActRIIB
T1 sequence: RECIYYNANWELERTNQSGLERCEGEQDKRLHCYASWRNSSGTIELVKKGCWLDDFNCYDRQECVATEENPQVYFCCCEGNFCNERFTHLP
Protocol: (§1) Biosensor experiments. In one embodiment, experiments were performed on a BIAcore™ T100/T200 instrument (Pharmacia Biosensor AB) in the multichannel mode (serial flow path involving flow cells 1+2+3+4). Flow rate was 10 μl/min; temperature was 25° C.; and data were recorded at 2.5 points/s. All four segments of a sensor chip CMS were coated with streptavidin (Sigma) to a density of 2000 pg/mm² (2000 resonance units) by the aminocoupling procedure. ActRIIBecd (10 mg) and amine-PEG3-Biotin (10 mg, Pierce, Rockford, Ill.) were dissolved in 200 μl H₂O and 10 mg NaCNBH₃ was added to prepare biotinylated ActRIIBecd. The reaction mixture was heated at 70° C. for 24 h, after that a further 10 mg NaCNBH₃ was added and the reaction was heated at 70° C. for another 24 h. After cooling to room temperature, the mixture was desalted with the spin column (3,000 molecular weight cut off (MWCO)). […] Sensograms were recorded during flow of the analyte (the ActRIIBecd-associated polypeptides (i.e., domains) as previously described) first through flow cell 1 (control) then through flow cell 2 (biotinylated ActRIIBecd). […] The sensograms obtained at 1.11, 3.33, 10, 30, and 90 nM analyte were evaluated for equilibrium binding, association rate, and dissociation rate by using the programs supplied with the instrument (BIA evaluation 2.1; Software Handbook. 1995; Pharmacia Biosensor AB).

[2] = biological target: T1, extracellular domain of activin …; test: BIAcore SPR, biotinylated ActRIIBecd on chip; SD ±12.34 nM
Protocol: as §1

[3] = biological target: T1, extracellular domain of activin …; test: BIAcore SPR, biotinylated ActRIIBecd on chip; SD ±17.42 nM
Protocol: as §1

[4] = biological target: T1, extracellular domain of activin …; test: BIAcore SPR, biotinylated ActRIIBecd on chip; SD ±13.59 nM
Protocol: as §1

[5] = biological target: T1, extracellular domain of activin …; test: BIAcore SPR, biotinylated ActRIIBecd on chip; SD ±15.74 nM
Protocol: as §1

[6] = biological target: T1, extracellular domain of activin …; test: BIAcore SPR, biotinylated ActRIIBecd on chip; SD ±17.84 nM
Protocol: as §1

[7] = biological target: T1, extracellular domain of activin …; test: BIAcore SPR, biotinylated ActRIIBecd on chip; SD ±19.56 nM
Protocol: as §1

[8] = biological target: T1, extracellular domain of activin …; test: BIAcore SPR, biotinylated ActRIIBecd on chip; SD ±13.69 nM
Protocol: as §1

[9] = biological target: T1, extracellular domain of activin …; test: BIAcore SPR, biotinylated ActRIIBecd on chip; SD ±18.14 nM
Protocol: as §1

[10] = biological target: T1, extracellular domain of activin …; test: BIAcore SPR, biotinylated ActRIIBecd on chip; SD ±19.51 nM
Protocol: as §1

[11] = biological target: T1, extracellular domain of activin …; test: BIAcore SPR, biotinylated ActRIIBecd on chip; SD ±12.47 nM
Protocol: as §1

[12] = biological target: T1, extracellular domain of activin …; test: BIAcore SPR, biotinylated ActRIIBecd on chip; SD ±14.15 nM
Protocol: as §1

[13] = biological target: T1, extracellular domain of activin …; test: BIAcore SPR, biotinylated ActRIIBecd on chip; SD ±16.14 nM
Protocol: as §1

[14] = biological target: T1, extracellular domain of activin …; test: BIAcore SPR, biotinylated ActRIIBecd on chip; SD ±13.71 nM
Protocol: as §1

[15] = biological target: T1, extracellular domain of activin …; test: BIAcore SPR, biotinylated ActRIIBecd on chip; SD ±14.42 nM
Protocol: as §1

[16] = biological target: T1, extracellular domain of activin …; test: BIAcore SPR, biotinylated ActRIIBecd on chip; SD ±13.44 nM
Protocol: as §1

[17] = biological target: T1, extracellular domain of activin …; test: BIAcore SPR, biotinylated ActRIIBecd on chip; SD ±18.67 nM
Protocol: as §1

[18] = biological target: T1, extracellular domain of activin …; test: BIAcore SPR, biotinylated ActRIIBecd on chip; SD ±16.11 nM
Protocol: as §1

[19] = biological target: T1, extracellular domain of activin …; test: BIAcore SPR, biotinylated ActRIIBecd on chip; SD ±19.71 nM
Protocol: as §1

[20] = biological target: T1, extracellular domain of activin …; test: BIAcore SPR, biotinylated ActRIIBecd on chip; SD ±18.15 nM
Protocol: as §1

[21] = biological target: T1, extracellular domain of activin …; test: BIAcore SPR, biotinylated ActRIIBecd on chip; SD ±19.11 nM
Protocol: as §1

B1: Recombinant polypeptide of clones 29 + 16 (designed binder)
chain: EPLGGARWEAFDVTDAVQSHRRSQRASRKCCLVLRAVTASVDFSDVGWNDWAVAPPGYHAFYCHGECPFPLADHLNSDNHAIVQTLVNSV
Kd [1]: 54.3 nM

B2: Recombinant polypeptide of clones 12 + 25 (designed binder)
chain: AQAKHKQYKRLKSSCKRHPLYTYPASPKPMRHKMRSCACCAGGLRNRTGTV
Kd [2]: 51.2 nM

NSKIPKACCVPTELSAISMLYLDENEKPVLKNYQDMVVEGCGCR [Clone No. 23 domain (ActRIIBecd-associated polypeptide)]
Kd [3]: 64.4 nM

NSKDPKACCVPTELSAISMLYLDENEKVVLKNYQDMVVHGCGCR [Clone No. 24 domain (ActRIIBecd-associated polypeptide)]
Kd [4]: 56.7 nM

B3: Recombinant polypeptide of clones 23 + 24 (designed binder)
chain: NSKIPKACCVPTELSAISMLYLDENEKPVLKNYQDMVVEGCGCRNSKDPKACCVPTELSAISMLYLDENEKVVLKNYQDMVVHGCGCR
Kd [5]: 61.8 nM

B4: Recombinant polypeptide of clones 24 + 23 (designed binder)
chain: B3 chain with I4D, P28V, E39H, D48I, V72P, H83E
Kd [6]: 62.7 nM

B5: Recombinant polypeptide of clones 17 + 18 (designed binder)
chain: VDFSDVGWNDWIVAPPGYHAFYCHGECPFPLADHLNSDNHAIVQTLVNSVVDFSDVGWNDHAVAPPGYHAFYCHGECPFPLADHLNSTNHAIVQTLVNSV
Kd [7]: 65.8 nM

B6: Recombinant polypeptide of clones 26 + 16 (designed binder)
chain: TYPASPKPMRHSMRSCACCAGGLRNQTGTVVDFSDVGWNDWAVAPPGYHAFYCHGECPFPLADHLNSDNHAIVQTLVNSV
Kd [8]: 61.7 nM

B7: Recombinant polypeptide of clones 16 + 29 (designed binder)
chain: VDFSDVGWNDWAVAPPGYHAFYCHGECPFPLADHLNSDNHAIVQTLVNSVEPLGGARWEAFDVTDAVQSHRRSQRASRKCCLVLRAVTAS
Kd [9]: 58.7 nM

B8: Recombinant polypeptide of clones 12 + 16 (designed binder)
chain: AQAKHKQYKRLKSSCKRHPLYVDFSDVGWNDWAVAPPGYHAFYCHGECPFPLADHLNSDNHAIVQTLVNSV
Kd [10]: 67.4 nM

B9: Recombinant polypeptide of clones 12 + 30 (designed binder)
chain: AQAKHKQYKRLKSSCKRHPLYTALDGTRGAQGSGGGGGGGGGGGGGGGGGGGGAGRGHGRRGRSRCSRKSLHVDFKELG
Kd [11]: 59.1 nM

TYPASPKPMRHKMRSCACCAGGLRNRTGTV [Clone No. 25 domain (ActRIIBecd-associated polypeptide)]
Kd [12]: 41.1 nM

TYPASPKPMRHSMRSCACCAGGLRNQTGTV [Clone No. 26 domain (ActRIIBecd-associated polypeptide)]
Kd [13]: 39.6 nM

B10: Recombinant polypeptide of clones 30 + 12 (designed binder)
chain: TALDGTRGAQGSGGGGGGGGGGGGGGGGGGGGAGRGHGRRGRSRCSRKSLHVDFKELGAQAKHKQYKRLKSSCKRHPLY
Kd [14]: 61.1 nM

EPLGGARWEAFDVTDAVQSHRRSPRASRKCCLGLRAVTAS [Clone No. 28 domain (ActRIIBecd-associated polypeptide)]
Kd [15]: 53.8 nM

EPLGGARWEAFDVTDAVQSHRRSQRASRKCCLVLRAVTAS [Clone No. 29 domain (ActRIIBecd-associated polypeptide)]
Kd [16]: 57.9 nM

B11: Recombinant polypeptide of clones 28 + 12 (designed binder)
chain: EPLGGARWEAFDVTDAVQSHRRSPRASRKCCLGLRAVTASAQAKHKQYKRLKSSCKRHPLY
Kd [17]: 57.9 nM

B12: Recombinant polypeptide of clones 12 + 28 (designed binder)
chain: AQAKHKQYKRLKSSCKRHPLYEPLGGARWEAFDVTDAVQSHRRSPRASRKCCLGLRAVTAS
Kd [18]: 59.1 nM

AQAKHKGYKRLKSSCKRHPLYAQAKHKGRKRLKSSCKRHPLY (designed binder) [Recombinant polypeptide of clones 9 + 11]
Kd [19]: 59.1 nM

AQAKHKGRKRLKSSCKRHPLYAQAKHKGYKRLKSSCKRHPLY (designed binder) [Recombinant polypeptide of clones 11 + 9]
Kd [20]: 58.2 nM

B13: Recombinant polypeptide of clones 16 + 26 (designed binder)
chain: VDFSDVGWNDWAVAPPGYHAFYCHGECPFPLADHLNSDNHAIVQTLVNSVTYPASPKPMRHSMRSCACCAGGLRNQTGTV
Kd [21]: 57.8 nM
